In the assay the target is T1, human NRP1 protein (human, UniProt O14786 22-856, limits assumed).
T1 construct: also called hNRP1 protein; neuropilin 1
T1 sequence (looked up): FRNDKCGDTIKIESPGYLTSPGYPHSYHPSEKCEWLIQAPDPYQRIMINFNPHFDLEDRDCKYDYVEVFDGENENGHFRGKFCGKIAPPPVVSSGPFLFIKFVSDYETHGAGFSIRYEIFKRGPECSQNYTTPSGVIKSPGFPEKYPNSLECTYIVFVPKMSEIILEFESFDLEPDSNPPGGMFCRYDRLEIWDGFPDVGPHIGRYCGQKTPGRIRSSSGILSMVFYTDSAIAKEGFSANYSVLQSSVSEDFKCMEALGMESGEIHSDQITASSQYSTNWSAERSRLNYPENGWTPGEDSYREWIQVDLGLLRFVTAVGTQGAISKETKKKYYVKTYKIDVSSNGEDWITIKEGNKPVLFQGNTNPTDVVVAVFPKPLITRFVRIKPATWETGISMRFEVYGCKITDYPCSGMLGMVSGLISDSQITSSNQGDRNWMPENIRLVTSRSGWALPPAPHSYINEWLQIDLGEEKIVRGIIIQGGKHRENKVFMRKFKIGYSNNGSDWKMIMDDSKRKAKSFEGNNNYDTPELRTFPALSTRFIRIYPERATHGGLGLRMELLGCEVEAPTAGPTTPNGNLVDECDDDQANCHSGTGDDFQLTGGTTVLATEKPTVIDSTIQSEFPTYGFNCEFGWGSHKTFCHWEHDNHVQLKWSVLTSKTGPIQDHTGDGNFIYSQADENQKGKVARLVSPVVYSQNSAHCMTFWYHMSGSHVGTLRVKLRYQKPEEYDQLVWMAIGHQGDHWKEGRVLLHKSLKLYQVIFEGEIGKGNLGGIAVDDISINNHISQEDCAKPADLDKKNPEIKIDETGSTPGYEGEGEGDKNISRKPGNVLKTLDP
The experiment in a line: SPR, Biacore T100.

One may read the Kd as the concentration at which binding is half-saturated.

Positions count from the first letter of the chain named.

B1: 3H10 scFv (scFv, V domains shown)
VH: EVQLLESGGGLVQFQQSLRLSQAASQFTFSSYYMSWVRQAFGKGLEWVSAISPGSSNKYYADSVKGRFTISRDNSKNTLYLQMNELRAEDTAVYYCARRKYMFDYWGQGTLVTVSS
VL: GSVLTQPPSASGTPGQRVTISCTGESSNIGNNDVYWYQQLPGTAFKLLIYSQSNRPSGMPDRFSGSKSGTSASLAISGLRSEDEADYYCASWDSSLSGYVFGGGTKLTVTL
The molecule B1 showed a Kd of 295 nM.

B2: 1A03 scFv (scFv, V domains shown)
VH: B1 VH with Q15G, Q16G, Q26G, P53F, K65Q, Y101K, M102S
VL: QSVLTQFFSASGTPGQRVTISCSGFSSNIGNNDVSWYQQLFGTAPKLLIYSCNNRPSGVPDRFSGSKSGTSASLAISGLRSSDEADYYCGAWVASLSAYVFGGGTKLTVTL
On to B2, for which the equilibrium dissociation constant (Kd) came out at 89.4 nM.

The record behind these values is patent US20190227052A1 (published 2019).
